This note sets out measurements from publication PMC9890572.

Several values for one entry are separate records, joined by “and”; a condition that tells them apart may be missing. Equal entries are not always repeated.

For the assay, the target named is smBiT–β-arrestin2 (UniProt P32121). Put plainly: split reporter.
Chain of UniProt P32121 (P32121 whole entry): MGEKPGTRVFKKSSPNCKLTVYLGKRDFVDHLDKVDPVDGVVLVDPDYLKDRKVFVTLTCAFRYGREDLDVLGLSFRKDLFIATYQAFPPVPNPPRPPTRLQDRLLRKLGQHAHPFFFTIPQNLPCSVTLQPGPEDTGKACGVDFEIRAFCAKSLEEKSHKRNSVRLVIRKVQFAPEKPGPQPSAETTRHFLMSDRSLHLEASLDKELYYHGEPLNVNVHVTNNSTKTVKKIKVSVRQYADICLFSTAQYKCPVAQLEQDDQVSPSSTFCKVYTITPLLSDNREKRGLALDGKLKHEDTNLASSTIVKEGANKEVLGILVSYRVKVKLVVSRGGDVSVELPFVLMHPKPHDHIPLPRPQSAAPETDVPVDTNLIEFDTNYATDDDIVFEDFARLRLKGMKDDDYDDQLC

Turning to “Gαi-LgBiT (from UniProt P63096 1-354) (natural protein)”, the other is -7.6 and -5.9.
